This note sets out measurements from US20250179205A1 (Hoffmann-La Roche, published 2025).

The target in assay [1] is T1, human CD40 (human, UniProt P25942 21-277).
T1 construct: on Daudi cells, Raji cells, human B cells or HEK-Blue CD40L cells; also called hu CD40; CD40 receptor
Briefly: flow cytometry, Raji cells, Alexa488 anti-huIgG. The method, then:
CD40 positive cells (Raji cells) were detached from the culture bottle using Trypsin and were counted using a Casy cell counter. After pelleting at 4° C., the cells were resuspended in FACS Buffer (2.5% FCS in PBS), adjusted to 2.0E+06 cells/mL, and dispensed to 96-well PP V-bottom-plates (25 μL/well=5.0E+04Zellen/well).
The CD40 specific antibodies were adjusted to 20 μg/mL in FACS buffer, resulting in a final concentration of 10 μg/mL. […] were added to 25 μl cell suspension and incubated for 1 h at 4° C. The cells were then washed twice in FACS buffer. After washing, the cells were resuspended in 50 μL FACS-buffer containing secondary antibody (<huIgG>-Alexa488, c=10 μg/mL) and incubated 1 h at 4° C. The cells were then washed twice in FACS buffer and resuspended in 70 μl/well FACS buffer for measurement using a FACS Canto (BD, Pharmingen).
On the technique in general: Flow cytometry measures light scatter and fluorescence of single cells or particles in a stream.

Assay [2] addresses T2, Human CD40 extracellular domain with C-terminal His-AviTag (human).
T2 construct: analyte in solution in the SPR assays; also called recombinant human CD40_ECD
Kind of assay: SPR (Biacore), antibody captured by anti-human F(ab')2, CD40 ECD as analyte, 1:1 model. The method, then: Around 12000 resonance units (RU) of the capturing system (10 μg/ml goat anti human F(ab)′₂; Order Code: 28958325; GE Healthcare Bio-Sciences AB, Sweden) were coupled on a CM5 chip (GE Healthcare BR-1005-30) at pH 5.0 by using an amine coupling kit supplied by the GE Healthcare. The sample and system buffer was PBS-T (10 mM phosphate buffered saline including 0.05% Tween20) pH 7.4. The flow cell was set to 25° C.—and the sample block set to 12° C.—and primed with running buffer twice. The antibody was captured by injecting a 50 nM solution for 30 sec at a flow of 5 μl/min. Association was measured by injection of human CD40 extra cellular domain or cynomolgus monkey CD40 extracellular domain in various concentrations in solution for 300 sec at a flow of 30 μl/min starting with 300 nM in 1:3 dilutions. The dissociation phase was monitored for up to 1200 sec and triggered by switching from the sample solution to running buffer. The surface was regenerated by 60 sec washing with a Glycine pH 2.1 solution at a flow rate of 30 μl/min. Bulk refractive index differences were corrected by subtracting the response obtained from a goat anti human F(ab′)₂ surface. Blank injections are also subtracted (=double referencing). For calculation of apparent KD and other kinetic parameters the Langmuir 1:1 model was used. The apparent Kd was calculated using the BIACORE® B4000 evaluation software (version 1.1).
In general terms: SPR reads the build-up and loss of mass on a sensor chip optically.

Assay [3] addresses T1, human CD40. Briefly: cell-based or functional assay.
Assay [4] addresses T1, human CD40. Briefly: cell-based or functional assay. The source holds these as a separate data set.
Assay [5] deals with T1, human CD40. Kind of assay: cell-based or functional assay. The source holds these as a separate data set.
The target in assay [6] is T1, human CD40. Kind of assay: flow cytometry, Daudi cells, PE anti-human Fc F(ab')2. As to the method: (§1) The binding to cell surface CD40 was tested using Daudi cells, a human B lymphoblast cell line with high expression levels of human CD40 (ATCC CCL-213). Daudi cells were cultured with 1× Dulbecco's Modified Eagle's Medium (DMEM) (Gibco, Cat. No. 42430-025) supplemented with 10% Fetal Bovine Serum (FBS) (life technologies, Cat. No. 16140, Lot No. 1797306A). 0.3×10⁵ Daudi cells were added in 200 μl of 1×DMEM with 10% FBS to each well of a round-bottom 96-well plate (Greiner Bio-One, CELLSTAR®, Cat. No. 650185). Plates were centrifuged 5 minutes at 1700 rpm and supernatants were flicked off. Cells were washed once with 200 μL of 4° C. cold FACS buffer (eBioscience, Cat. No. 00-4222-26). All samples were resuspended in 50 μL/well of 4° C. cold FACS buffer containing the bispecific antigen binding molecules (primary antibody) or isotype control antibody DP47 at the indicated range of concentrations (in duplicates) and incubated for 120 minutes at 4° C. Afterwards the cells were washed three times with 200 μL 4° C. cold FACS buffer. Cells were further stained with 25 μL/well of 4° C. cold secondary antibody solution (1:50 dilution of secondary antibody) containing R-Phycoerythrin (PE) conjugated AffiniPure F(ab′)₂ Fragment Goat Anti-Human IgG, Fcγ Fragment Specific (Jackson ImmunoResearch, Cat. No. 109-116-098) and incubated for 60 minutes at 4° C. in the dark. Cells were washed with 200 μl FACS buffer and resuspended in 85 μL/well FACS-buffer containing 0.2 μg/mL DAPI (Roche, Cat. No. 10236276001) and acquired the same day using a 5-laser LSR-Fortessa (BD Bioscience with DIVA software). Data analysis was performed using the FlowJo version 10 software (FlowJo LLC).

In assay [7] the target is T3, mouse fibroblast activation protein (mFAP) (mouse, UniProt P97321 1-761).
T3 construct: expressed on transfected NIH/3T3-mFAP clone 26 cells; also called murine FAP; mouse FAP
Briefly: flow cytometry on NIH/3T3-mFAP cells (3T3_mFAP), PE-labelled anti-human IgG Fcgamma F(ab')2 secondary, MFI baseline corrected. The method, then:
(§2) NIH/3T3-huFAP clone 19 and NIH/3T3-mFAP clone 26 were generated by the transfection of the mouse embryonic fibroblast NIH/3T3 cell line (ATCC CRL-1658) with the expression vector pETR4921 to express under 1.5 μg/mL Puromycin selection huFAP or mFAP, respectively.
as §1, with “NIH/3T3-huFAP, NIH/3T3-mFAP or NIH/3T3-wt” for “The binding to cell surface CD40 was tested using Daudi cells, a human B lymphoblast cell line with high expression levels of human CD40 (ATCC CCL-213). Daudi”, “1797306A). For the NIH/3T3-huFAP and NIH/3T3-mFAP cells 1.5 μg/mL Puromycin (Gibco, Cat. No. A11138-03) was added to the medium for selection of FAP-expressing cells. NIH/3T3 cells were removed from the plate by using enzyme-free Cell Dissociation Buffer (Gibco, Cat. No. 13151014).” for “1797306A).”, “NIH/3T3-huFAP clone 19, NIH/3T3-mFAP clone 26 or NIH/3T3-wt” for “Daudi cells”, “1×DMEM” for “1×DMEM with”, “using” for “using a”

The target in assay [8] is T4, human fibroblast activation protein (huFAP) (human, UniProt Q12884 1-760).
T4 construct: expressed on transfected NIH/3T3-huFAP clone 19 cells; also called human FAP
Briefly: flow cytometry on NIH/3T3-huFAP clone 19 cells, PE-labelled anti-human IgG Fcgamma F(ab')2 secondary, MFI baseline corrected. The method, then: as §2
as §1, with “NIH/3T3-huFAP, NIH/3T3-mFAP or NIH/3T3-wt” for “The binding to cell surface CD40 was tested using Daudi cells, a human B lymphoblast cell line with high expression levels of human CD40 (ATCC CCL-213). Daudi”, “1797306A). For the NIH/3T3-huFAP and NIH/3T3-mFAP cells 1.5 μg/mL Puromycin (Gibco, Cat. No. A11138-03) was added to the medium for selection of FAP-expressing cells. NIH/3T3 cells were removed from the plate by using enzyme-free Cell Dissociation Buffer (Gibco, Cat. No. 13151014).” for “1797306A).”, “NIH/3T3-huFAP clone 19, NIH/3T3-mFAP clone 26 or NIH/3T3-wt” for “Daudi cells”, “1×DMEM” for “1×DMEM with”, “using” for “using a”, “Data analysis was performed using the FlowJo version 10 software (FlowJo LLC).” left out

T3 sequence (P97321 whole entry): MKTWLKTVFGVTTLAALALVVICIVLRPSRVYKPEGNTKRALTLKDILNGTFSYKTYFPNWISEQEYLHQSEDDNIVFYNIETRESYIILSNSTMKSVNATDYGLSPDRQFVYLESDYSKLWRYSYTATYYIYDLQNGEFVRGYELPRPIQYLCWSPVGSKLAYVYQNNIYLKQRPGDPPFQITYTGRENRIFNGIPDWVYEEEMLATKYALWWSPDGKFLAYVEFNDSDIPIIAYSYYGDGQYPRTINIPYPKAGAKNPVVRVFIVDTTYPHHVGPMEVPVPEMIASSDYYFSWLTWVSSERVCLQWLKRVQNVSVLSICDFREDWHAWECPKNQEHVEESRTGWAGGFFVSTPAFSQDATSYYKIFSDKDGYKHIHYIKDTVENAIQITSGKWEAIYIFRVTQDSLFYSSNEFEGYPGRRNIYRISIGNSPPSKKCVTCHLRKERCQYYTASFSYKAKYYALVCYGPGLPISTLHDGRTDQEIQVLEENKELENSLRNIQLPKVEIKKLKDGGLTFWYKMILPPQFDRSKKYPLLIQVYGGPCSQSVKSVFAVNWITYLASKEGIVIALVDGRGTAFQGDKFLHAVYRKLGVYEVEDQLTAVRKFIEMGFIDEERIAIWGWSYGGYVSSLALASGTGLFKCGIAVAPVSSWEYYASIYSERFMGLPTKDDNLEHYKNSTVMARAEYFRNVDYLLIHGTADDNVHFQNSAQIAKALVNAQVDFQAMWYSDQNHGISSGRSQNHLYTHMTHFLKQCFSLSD
T2 sequence (chain, as listed by the source limits assumed): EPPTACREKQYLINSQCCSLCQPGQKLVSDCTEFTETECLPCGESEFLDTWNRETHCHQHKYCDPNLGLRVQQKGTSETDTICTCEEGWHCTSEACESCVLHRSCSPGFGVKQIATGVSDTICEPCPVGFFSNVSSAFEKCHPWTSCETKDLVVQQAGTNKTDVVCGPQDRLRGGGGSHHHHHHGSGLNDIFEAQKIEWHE
T1 sequence (P25942 21-277 limits assumed): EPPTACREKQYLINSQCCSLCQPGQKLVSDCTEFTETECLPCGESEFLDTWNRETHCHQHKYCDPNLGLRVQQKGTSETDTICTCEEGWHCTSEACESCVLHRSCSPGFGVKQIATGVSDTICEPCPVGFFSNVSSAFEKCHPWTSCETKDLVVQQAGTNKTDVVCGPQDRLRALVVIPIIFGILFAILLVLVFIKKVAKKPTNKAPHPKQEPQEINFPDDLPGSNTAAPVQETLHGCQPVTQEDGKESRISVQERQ

B1: P1AE0816 CD40 IgG1_LALAPG antibody (control) (antibody, V domains shown)
VH: QVQLVQSGAEVKKPGASVKVSCKASGYSFTGYYIHWVRQAPGQSLEWMGRVIPNNGGTSYNQKFQGRVTISVDKSISTAYMELSSLRSEDTAVYYCAREGIYWWGHGTTVTVSS
VL: DVVVTQSPLSLPVTPGEPASISCRSSQSLVHSNGNTFLHWYLQKPGQSPQLLIYTVSNRFSGVPDRFSGSGSGTDFTLKISRVEAEDVGVYFCSQTTHVPWTFGGGTKLEIKR
notes: huIgG1 LALA PG; control for acceptor framework 1
Turning to B1, in assay [1], the concentration for a half-maximal effect (EC50) stood at 0.09 µg/mL. For the same molecule, in assay [2], the Kd came to 8.7 nM, the dissociation rate constant (koff) is 0.0219 s⁻¹ and the kon was determined as 2.53e+06 M⁻¹ s⁻¹.

B2: P1AD4470 CD40 IgG (antibody, V domains shown)
VH: EVQLVESGGGLVQPGGSLRLSCAASGYSFTGYYIHWVRQAPGKGLEWVARVIPNAGGTSYNQKFKGRFTLSVDNSKNTAYLQMNSLRAEDTAVYYCAREGIYWWGQGTLVTVSS
VL: DIQMTQSPSSLSASVGDRVTITCRSSQSLVHSNGNTFLHWYQQKPGKAPKLLIYTVSNRFSGVPSRFSGSGSGTDFTLTISSLQPEDFATYFCSQTTHVPWTFGQGTKVEIKR
notes: bivalent anti-human CD40 IgG1; cross-linked with anti-human Fc F(ab')2 in the functional assays; also called CD40 IgG1 PGLALA; CD40 IgG1
For the molecule B2, in assay [3], the “EC50, activation of human Daudi cells (CD70 expression) with FAP-coated Dynabeads” value is 0.756 nM. For the same molecule, the “EC50, activation of human B cells with FAP-coated Dynabeads, increase of CD86 expression” value in assay [4] amounted to 0.072 nM. Moreover, the “EC50, activation of HEK-Blue CD40L cells (SEAP) with murine FAP-coated Dynabeads” value in assay [5] was determined as 0.125 nM. The molecule further yielded an EC50 in assay [1] of 0.09 µg/mL. In assay [6], this molecule yielded an EC50 of 0.104 nM. In assay [2], this molecule gave a Kd of 4.6 nM, a koff of 0.00781 s⁻¹ and a kon of 1.69e+06 M⁻¹ s⁻¹. The binding result in assay [7] was “no binding (tested: 500 nM)”.

B3: P1AD4574 CD40 × DP47 (4 + 1) (bispecific antibody)
heavy 1: not shown
heavy 2: not shown
light: DIQMTQSPSSLSASVGDRVTITCRSSQSLVHSNGNTFLHWYQQKPGKAPKLLIYTVSNRFSGVPSRFSGSGSGTDFTLTISSLQPEDFATYFCSQTTHVPWTFGQGTKVEIKRTVAAPSVFIFPPSDEQLKSGTASVVCLLNNFYPREAKVQWKVDNALQSGNSQESVTEQDSKDSTYSLSSTLTLSKADYEKHKVYACEVTHQGLSSPVTKSFNRGEC
notes: also called huCD40-DP47
Consider B3, for which the “EC50, activation of human Daudi cells (CD70 expression) with FAP-coated Dynabeads” value in assay [3] stood at 0.166 nM. In addition, in assay [5], the “EC50, activation of HEK-Blue CD40L cells (SEAP) with murine FAP-coated Dynabeads” value was 0.421 nM. Also, the EC50 in assay [6] came out at 0.031 nM. The binding result in assay [8] and in assay [7] was “no binding (tested: 500 nM)” each time.

B4: P1AD4465 CD40 × DP47 (4 + 2) (bispecific antibody)
heavy: not shown
light 1: DIQMTQSPSSLSASVGDRVTITCRSSQSLVHSNGNTFLHWYQQKPGKAPKLLIYTVSNRFSGVPSRFSGSGSGTDFTLTISSLQPEDFATYFCSQTTHVPWTFGQGTKVEIKRTVAAPSVFIFPPSDRKLKSGTASVVCLLNNFYPREAKVQWKVDNALQSGNSQESVTEQDSKDSTYSLSSTLTLSKADYEKHKVYACEVTHQGLSSPVTKSFNRGEC
light 2: not shown
notes: also called huCD40-DP47
In assay [6], B4 came in with an EC50 of 0.036 nM. Also, the binding result in assay [8] and in assay [7] was “no binding (tested: 500 nM)” in each case.

For orientation: EC50 means the concentration that produces a half-maximal response. Low readings indicate higher potency in that assay, high ones lower potency in that assay. By Kd is commonly meant a measure of binding affinity in units of concentration. For orientation: koff means the first-order rate constant of dissociation. A higher koff goes with a short-lived complex. A word on the kon: it is the rate constant with which the complex forms. Low readings indicate slower complex formation, high ones faster complex formation.
